Measured values published in paper PMC12386762.

Target: Escherichia coli RecA (Escherichia coli) (UniProt P0A7G6)
Sequence (P0A7G6 whole entry): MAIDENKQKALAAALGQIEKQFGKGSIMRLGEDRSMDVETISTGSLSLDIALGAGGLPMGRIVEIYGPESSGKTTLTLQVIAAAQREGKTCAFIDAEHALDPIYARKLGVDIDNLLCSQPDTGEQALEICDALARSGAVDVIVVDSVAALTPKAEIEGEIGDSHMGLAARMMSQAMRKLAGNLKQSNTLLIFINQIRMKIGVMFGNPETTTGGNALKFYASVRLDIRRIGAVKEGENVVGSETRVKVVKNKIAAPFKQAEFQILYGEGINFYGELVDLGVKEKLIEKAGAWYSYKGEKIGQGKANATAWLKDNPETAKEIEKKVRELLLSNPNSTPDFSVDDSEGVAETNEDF

activation of RecAEco (5 uM) dATP hydrolysis on (dT)21 by 0.3 uM DprABsu, against RecAEco alone: 7 to 8 fold
B1: Bacillus subtilis DprA (natural protein)
chain: MDQAAVCLTICRINQLLSPSLLLKWWKADPSMSLTSPVLQTVTRDQIKAAALKNEIEQFYPKLPRVLAAYREQGINTIPISSKQYPFWLKSIYDPPAVLFAKGDMTLLSKGRKIGIVGTRNPTAYGKQVVNHLTKEICRKGWVIVSGLASGIDGMSHAASIKAKGRTIGVIAGGFQHIYPRENLQLADHMAKHHILLSEHPPETKPQKWHFPMRNRIISGLSEGVIVVQGKEKSGSLITAYQALEQGREVFAVPGSLFDPYAGGPIKLIQQGAKAIWSAEDIFEELPERNVQYTEPF
